Measurements published in the supplement of paper PMC9170038.

System: MS2 coat protein
Test: apparent KD of MS2 coat protein; designed switch direction (-1 OFF switch, 1 ON switch): -1; higher = weaker reporter binding
Summary of the method: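 Designed RNA switches with common flanks were made on Illumina chips by stalled E. coli RNA polymerase. Titration with SNAP-549-labelled MS2 coat protein doubled from 0.7 or 1.5 nM up to 3 µM. Apparent KD is each design's median over clusters after curve-fitting normalised fluorescence.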

[1] = Eterna round: R95, input ligand: FMN 200 uM
[2] = Eterna round: R95, input ligand: microRNA oligo, concentration not stated
[3] = Eterna round: R95, input ligand: none
[4] = input ligand: microRNA oligo, concentration not stated

Sequence	apparent KD of MS2 coat protein (input ligand: FMN 200 uM) [nM]	apparent KD of MS2 coat protein (input ligand: none) [nM]	apparent KD of MS2 coat protein [1] [nM]	apparent KD of MS2 coat protein [2] [nM]	apparent KD of MS2 coat protein [3] [nM]	apparent KD of MS2 coat protein [4] [nM]
GAUUAACAUGAGGAUCACCCAUGUGAGGAUAUGGACUUGCCCACUUACCCAUUAGAGUCUAGAAGGCGCAUCUC [1986#2\9] (Eterna round: R97, puzzle: Exclusion 1)	25.7	25.3				
GAUUAACAUGAGGAUCACCCAUGUGAGGAUAUGGACUUGCCCACUUACCCAUUAGAGUCUAGAAGGCGCAUCUG [1986#23] (Eterna round: R97, puzzle: Exclusion 1)	48.4	49.8				
GAUUAACAUGAGGAUCACCCAUGUGAGGAUAUGGACUUGCCCACUUUCCCAUUAGAGUCUAGAAGGCGCAUCUG [1986#24] (Eterna round: R97, puzzle: Exclusion 1)	37.2	37.9				
GAUUAACAUGAGGAUCACCCAUGUGAGGAUAUGGACUUGCUCACUUUCCGAUUCGAGUCUAGAAGGCGCAUCUU [1986#116] (Eterna round: R97, puzzle: Exclusion 1)	30.6	27.1				
GAUUACUGCAAGCUUUGGGACAUGAGGAUCACCCAUGUUCGUCUUAUUGAUCUAGGUACGCUGACGUACCUAGAUCU [JL-sv1-2.28 Brourd mod] (puzzle: Sensor v3, turn-off variant 1)			15.8	26	14.1	
GAUUAGUGAGGAUAUGGUAAAGAUAAGAUGAUGAAAGAACUCCAGAAGGCACAUGAGGAUCACCCAUGUAGUAU [Mat - Exclusion 4 - Mod of JL - D22] (puzzle: Exclusion 4)				21.6		
GAUUAUGCGAGCUUUAGGGACAUGAGGAUCACCCAUGUUCGUCUUAUUAAUCUAGGUACGCUAACAUACCUAAAUCU [JMF 39] (puzzle: Sensor v3, turn-off variant 1)			20.3	34.3	20.6	
GAUUAUGCGAGCUUUAGGGACAUGAGGAUCACCCAUGUUCGUCUUAUUAAUCUGGGUACACUAACAUACCUAAAUCU [JMF 9] (puzzle: Sensor v3, turn-off variant 1)			27.7	47.2	31.4	
GAUUAUGCGAGCUUUAGGGACAUGAGGAUCACCCAUGUUCGUCUUAUUAAUCUGGGUACACUGACAUACCUAAAUCU [JMF 69] (puzzle: Sensor v3, turn-off variant 1)			32.1	48.4	33.9	
GAUUAUGCGAGCUUUAGGGACAUGAGGAUCACCCAUGUUCGUCUUAUUAAUCUGGGUGCGCUAACAUACCUAAAUCU [JMF 52] (puzzle: Sensor v3, turn-off variant 1)			56	113	87.4	
GAUUAUGCGAGCUUUAGGGACAUGAGGAUCACCCAUGUUCGUCUUAUUAGUCUGAAUACACUGACAUACCUAAAUCU [JMF 55] (puzzle: Sensor v3, turn-off variant 1)			14.8	19.5	17.8	
GAUUAUGCGAGCUUUAGGGACAUGAGGAUCACCCAUGUUCGUCUUAUUAGUCUGAAUGCACUGACAUACCUAAAUCU [JMF 75] (puzzle: Sensor v3, turn-off variant 1)			16.2	17.7	16.1	
GAUUAUGCGAGCUUUAGGGACAUGAGGAUCACCCAUGUUCGUCUUAUUGAUCUAGAUGCACUAACAUACCUAAAUCU [JMF 25] (puzzle: Sensor v3, turn-off variant 1)			19.7	25.1	20.1	
GAUUAUGCGAGCUUUAGGGACAUGAGGAUCACCCAUGUUCGUCUUAUUGGUCUAAGUGCACUAACAUACCUAAAUCU [JMF 30] (puzzle: Sensor v3, turn-off variant 1)			21.2	38.5	20	
GAUUAUGCGAGCUUUAGGGACAUGAGGAUCACCCAUGUUCGUCUUAUUGGUCUGAAUACACUGACAUACCUAAAUCU [JMF 56] (Eterna round: R96, puzzle: Sensor v3, turn-off variant 1)	17.1	18.7				18.3
GAUUAUGCGAGCUUUAGGGACAUGAGGAUCACCCAUGUUCGUCUUAUUGGUCUGAAUACACUGACAUACCUAAAUCU [JMF 56] (puzzle: Sensor v3, turn-off variant 1)			16.6	21.8	15.9	
GAUUAUGCGAGCUUUAGGGACAUGAGGAUCACCCAUGUUCGUCUUAUUGGUCUGAGUACACUGACAUACCUAAAUCU [JMF 63] (puzzle: Sensor v3, turn-off variant 1)			13.3	15.9	12.8	

Sequence	apparent KD of MS2 coat protein (input ligand: FMN 200 uM) [nM]	apparent KD of MS2 coat protein (input ligand: none) [nM]	apparent KD of MS2 coat protein [1] [nM]	apparent KD of MS2 coat protein [2] [nM]	apparent KD of MS2 coat protein [3] [nM]	apparent KD of MS2 coat protein [4] [nM]
GAUUGACAUGAGGAUCACCCAUGUGAGGAUAUCGGCCGGACCUUGUUAGCUUCCAUCGUGAGAAGGCACAUAGG [Exclusion 1 V35] (puzzle: Exclusion 1)				26.9		
GAUUGAGAAGGAUAUACAUGAGGAUCACCCAUGUGCUUCAGCUAGGAGACUAGCAUUGGUAGAAGGUCUUAAUC [Mod of lroppy 15 - Jieux - Exclusion 3] (Eterna round: R97, puzzle: Exclusion 3)	69.7	19.2				
GCAACGAGAGGAUAUGCUUAACGACCGGCGGAAGCGGAUCCACAUGAGGAUCACCCAUGUAGAAGGCUCGGACC [Eternabot (Original) Solution 24] (Eterna round: R97, puzzle: Exclusion 2)	35.8	27.4				
GCAAGACAUGAGGAUCACCCAUGUGAGGAUAUUGCUCGACACCUGCGCGAAGAGUCGAUAAGAAGGUACAGGGU [Eternabot (L2) Solution 90] (Eterna round: R97, puzzle: Exclusion 1)	69.4	52.6				
GCAAGCGACUAGGCUCGUCUUAUAUUGAAAAGAUUGAAAACAUGAGGAUCACCCAUGUAUGUGGGAAAGUUGAAGUG [JR_SV3TOV2_Sub010] (puzzle: Sensor v3, turn-off variant 2)			393	526	332	
GCAAGCGAUUAGGCUCGUCUUAUAAAGAAAAGAAUGAAAACAUGAGGAUCACCCAUGUAAGUGGGAAAGUUGAAGUG [JR_SV3TOV2_Sub009] (puzzle: Sensor v3, turn-off variant 2)			267	1340	210	
GCAAGCUUAAUCAGUAUGAACAUGAGGAUCACCCAUGUAUAAGGUAAUUCUUUUGGGUUUUUUAUUGCUCGUCUUAU [JR_STOV1_Sub027] (Eterna round: R97, puzzle: Sensor, turn-off variant 1)	245	297				
GCAAGCUUUUGCUCGCCUUACAUGAGGAUCACCCAUGUGGGCCCGGGCCCGGGCCCGCCGGGCCCGGGCCCGGGCCC [-59.4, -80.7 kcal, A 10%] (Eterna round: R97, puzzle: Sensor, turn-off variant 1)	26.5	32.2				
GCAAUUUCAAAGGAUAUACCUAAUUAACUAUCGGUAGAAGGUUGGACAUGAGGAUCACCCAUGUGCUCACACUU [Eternabot (L2) Solution 67] (Eterna round: R97, puzzle: Exclusion 6)	15.9	15.6				
GCACAGGCAGGAUAUACAUGAGGAUCACCCAUGUGACCCUUGAUGUACUCGCGUACACGUAGAAGGGCCUGUGC [Omei Ex3 Model Bachelor's Dilema v41] (Eterna round: R97, puzzle: Exclusion 3)	633	407				
GCACAUGAGGAUCACCCAUGUCAAUGGGAAUUCCUUCUUCAACAGGAUAUCCGAUGGAGAACGUCGGAGAAGGGUUCGCCAGUA [Eternabot solution 15] (Eterna round: R96, puzzle: Exclusion NG 3)	31.4	25.7				19.5
GCACCGCGAGGAUAUACAUGAGGAUCACCCAUGUGUCCGCAGCGAUGUGUGUACAAAUGUAGAAGGCGCGUAAA [EX3 #60] (Eterna round: R97, puzzle: Exclusion 3)	21.5	12.1				
GCACGGAAAUUCCAUAAAACCACAUGAGGAUCACCCAUGUCUCAGGAUAUGGUCUGGAUUACAGGCCAGAAGGGAGAACCGUGC [Eli exng3 - 059] (Eterna round: R96, puzzle: Exclusion NG 3)	15.1	11.8				10.2
GCACGGAGUGCAGGAUAUCUGUGCGAUUAGCUCAGAGAAGGGCACAUGAGGAUCACCCAUGUGUAUAAACACAAUAAUCCGUGC [Eli exng1 - 068] (Eterna round: R96, puzzle: Exclusion NG 1)	18.6	14				9.94
GCACGGAGUGUAGGAUAUCUGUGCGAUUAGCUCAGAGAAGGACACAUGAGGAUCACCCAUGUGUAACUCAACAUUAAUCCGUGC [Eli exng1 - 074] (Eterna round: R96, puzzle: Exclusion NG 1)	9.63	10.6				7.59
GCACGGAGUGUAGGAUAUCUGUGCGAUUAGCUCAGAGAAGGGCACAUGAGGAUCACCCAUGUGUAUAAACACAAUAAUCCGUGC [Eli exng1 - 069] (Eterna round: R96, puzzle: Exclusion NG 1)	12.8	14.1				7.91
